± gives the uncertainty stated by the source.
B1: Formin-binding protein 4, residues 200 to 261; numbered along this chain, Q8N3X1 (parent)
chain: SGWQYDTQCSLAGVGIEMGDWQEVWDENTGCYYYWNTQTNEVTWELPQYLATQVQGLQHYQP

Variants of: B1
Assay: abundance fitness (aPCA) (normalised: wild type 0, dead -1); higher = more abundant; growth selection in yeast, the domain comes from the species named
Conditions: Homo sapiens
SGWQYDTQCSLAGSGIEMGDWQEVWDENTGCYYYWNTQTNEVTWELPQYLATQVQGLQHYQP gave an abundance fitness of -0.163 ± 0.075.
Variant SGWQYDTQCSLAGNGIEMGDWQEVWDENTGCYYYWNTQTNEVTWELPQYLATQVQGLQHYQP has an abundance fitness of -0.067 ± 0.16.
With SGWQYDTQCSLAGGGIEMGDWQEVWDENTGCYYYWNTQTNEVTWELPQYLATQVQGLQHYQP the abundance fitness was 0.091 ± 0.071.
SGWQYDTQCSLAGAGIEMGDWQEVWDENTGCYYYWNTQTNEVTWELPQYLATQVQGLQHYQP gave an abundance fitness of -0.06 ± 0.07.
With SGWQYDTQCSLAGRGIEMGDWQEVWDENTGCYYYWNTQTNEVTWELPQYLATQVQGLQHYQP the abundance fitness was -0.01 ± 0.064.
Variant SGWQYDTQCSLAGHGIEMGDWQEVWDENTGCYYYWNTQTNEVTWELPQYLATQVQGLQHYQP has an abundance fitness of -0.09 ± 0.18.
Variant SGWQYDTQCSLAGQGIEMGDWQEVWDENTGCYYYWNTQTNEVTWELPQYLATQVQGLQHYQP has an abundance fitness of 0.071 ± 0.084.
In the case of SGWQYDTQCSLAGTGIEMGDWQEVWDENTGCYYYWNTQTNEVTWELPQYLATQVQGLQHYQP, the abundance fitness is reported as -0.084 ± 0.091.
SGWQYDTQCSLAGEGIEMGDWQEVWDENTGCYYYWNTQTNEVTWELPQYLATQVQGLQHYQP gave an abundance fitness of -0.03 ± 0.087.
Variant SGWQYDTQCSLAGCGIEMGDWQEVWDENTGCYYYWNTQTNEVTWELPQYLATQVQGLQHYQP has an abundance fitness of -0.043 ± 0.17.
In the case of SGWQYDTQCSLAGPGIEMGDWQEVWDENTGCYYYWNTQTNEVTWELPQYLATQVQGLQHYQP, the abundance fitness is reported as -0.698 ± 0.11.
SGWQYDTQCSLAGLGIEMGDWQEVWDENTGCYYYWNTQTNEVTWELPQYLATQVQGLQHYQP showed an abundance fitness of -0.071 ± 0.053.
Variant SGWQYDTQCSLAGVGIIMGDWQEVWDENTGCYYYWNTQTNEVTWELPQYLATQVQGLQHYQP has an abundance fitness of -0.373 ± 0.12.
SGWQYDTQCSLAGVGICMGDWQEVWDENTGCYYYWNTQTNEVTWELPQYLATQVQGLQHYQP showed an abundance fitness of -0.338 ± 0.077.
For SGWQYDTQCSLAGVGIFMGDWQEVWDENTGCYYYWNTQTNEVTWELPQYLATQVQGLQHYQP, the abundance fitness was -0.263 ± 0.094.
For SGWQYDTQCSLAGVGIPMGDWQEVWDENTGCYYYWNTQTNEVTWELPQYLATQVQGLQHYQP, the abundance fitness was -0.58 ± 0.1.
For SGWQYDTQCSLAGVGIRMGDWQEVWDENTGCYYYWNTQTNEVTWELPQYLATQVQGLQHYQP, the abundance fitness was -0.103 ± 0.051.
For SGWQYDTQCSLAGVGIKMGDWQEVWDENTGCYYYWNTQTNEVTWELPQYLATQVQGLQHYQP, the abundance fitness was 0.063 ± 0.099.
SGWQYDTQCSLAGVGIHMGDWQEVWDENTGCYYYWNTQTNEVTWELPQYLATQVQGLQHYQP showed an abundance fitness of -0.105 ± 0.11.
Variant SGWQYDTQCSLAGVGIDMGDWQEVWDENTGCYYYWNTQTNEVTWELPQYLATQVQGLQHYQP has an abundance fitness of 0.138 ± 0.089.
SGWQYDTQCSLAGVGINMGDWQEVWDENTGCYYYWNTQTNEVTWELPQYLATQVQGLQHYQP gave an abundance fitness of -0.34 ± 0.1.
For SGWQYDTQCSLAGVGIAMGDWQEVWDENTGCYYYWNTQTNEVTWELPQYLATQVQGLQHYQP, the abundance fitness was -0.183 ± 0.081.
Variant SGWQYDTQCSLAGVGIQMGDWQEVWDENTGCYYYWNTQTNEVTWELPQYLATQVQGLQHYQP has an abundance fitness of -0.038 ± 0.096.
In the case of SGWQYDTQCSLAGVGIMMGDWQEVWDENTGCYYYWNTQTNEVTWELPQYLATQVQGLQHYQP, the abundance fitness is reported as -0.414 ± 0.12.
SGWQYDTQCSLAGVGIGMGDWQEVWDENTGCYYYWNTQTNEVTWELPQYLATQVQGLQHYQP showed an abundance fitness of -0.346 ± 0.061.
Work on SGWQYDTQCSLAGVGILMGDWQEVWDENTGCYYYWNTQTNEVTWELPQYLATQVQGLQHYQP yielded an abundance fitness of -0.577 ± 0.073.
Work on SGWQYDTQCSLARVGIEMGDWQEVWDENTGCYYYWNTQTNEVTWELPQYLATQVQGLQHYQP yielded an abundance fitness of -0.194 ± 0.057.
Variant SGWQYDTQCSLAFVGIEMGDWQEVWDENTGCYYYWNTQTNEVTWELPQYLATQVQGLQHYQP has an abundance fitness of -0.129 ± 0.084.
With SGWQYDTQCSLALVGIEMGDWQEVWDENTGCYYYWNTQTNEVTWELPQYLATQVQGLQHYQP the abundance fitness was -0.187 ± 0.055.
Work on SGWQYDTQCSLAEVGIEMGDWQEVWDENTGCYYYWNTQTNEVTWELPQYLATQVQGLQHYQP yielded an abundance fitness of -0.161 ± 0.094.
SGWQYDTQCSLAVVGIEMGDWQEVWDENTGCYYYWNTQTNEVTWELPQYLATQVQGLQHYQP showed an abundance fitness of -0.424 ± 0.069.
SGWQYDTQCSLAPVGIEMGDWQEVWDENTGCYYYWNTQTNEVTWELPQYLATQVQGLQHYQP showed an abundance fitness of -0.082 ± 0.079.
SGWQYDTQCSLADVGIEMGDWQEVWDENTGCYYYWNTQTNEVTWELPQYLATQVQGLQHYQP showed an abundance fitness of -0.087 ± 0.094.
SGWQYDTQCSLAWVGIEMGDWQEVWDENTGCYYYWNTQTNEVTWELPQYLATQVQGLQHYQP showed an abundance fitness of -0.666 ± 0.097.
For SGWQYDTQCSLAIVGIEMGDWQEVWDENTGCYYYWNTQTNEVTWELPQYLATQVQGLQHYQP, the abundance fitness was -0.471 ± 0.14.
Variant SGWQYDTQCSLATVGIEMGDWQEVWDENTGCYYYWNTQTNEVTWELPQYLATQVQGLQHYQP has an abundance fitness of -0.009 ± 0.077.
With SGWQYDTQCSLAKVGIEMGDWQEVWDENTGCYYYWNTQTNEVTWELPQYLATQVQGLQHYQP the abundance fitness was -0.107 ± 0.094.
SGWQYDTQCSLANVGIEMGDWQEVWDENTGCYYYWNTQTNEVTWELPQYLATQVQGLQHYQP showed an abundance fitness of -0.468 ± 0.15.
SGWQYDTQCSLAMVGIEMGDWQEVWDENTGCYYYWNTQTNEVTWELPQYLATQVQGLQHYQP showed an abundance fitness of -0.158 ± 0.1.
For SGWQYDTQCSLAYVGIEMGDWQEVWDENTGCYYYWNTQTNEVTWELPQYLATQVQGLQHYQP, the abundance fitness was -0.578 ± 0.14.
In the case of SGWQYDTQCSLAHVGIEMGDWQEVWDENTGCYYYWNTQTNEVTWELPQYLATQVQGLQHYQP, the abundance fitness is reported as -0.158 ± 0.14.
Variant SGWQYDTQCSLAQVGIEMGDWQEVWDENTGCYYYWNTQTNEVTWELPQYLATQVQGLQHYQP has an abundance fitness of -0.197 ± 0.11.
Variant SGWQYDTQCSLASVGIEMGDWQEVWDENTGCYYYWNTQTNEVTWELPQYLATQVQGLQHYQP has an abundance fitness of -0.171 ± 0.065.
